In test [1] the test system is Tsp-1. Put plainly: Western blot of Tsp-1 in prostate fibroblasts treated with PC3-conditioned media. The test is classed as cell-based. The source says: (§1) FIGS. 6A-6B. Western blot analysis of: (FIG. 6A) Tsp-1 and β-actin expression in prostate fibroblasts that were untreated (−) or treated with conditioned media from PC3 cells alone or in combination with RAP, and (FIG. 6B) Tsp-1, p53 and β-actin expression in prostate fibroblasts that were untreated (−) or treated with conditioned media from PC3 cells alone or in combination with the PKC inhibitor Gδ 6983 (PKCi).
(§2) Thus, in order to determine how prosaposin was able to stimulate the expression of Tsp-1 and p53 in tumor-associated fibroblasts, prostate fibroblasts were treated with PC3-conditioned media in the presence and absence of Receptor Associate Protein (RAP), a competitive inhibitor or LRP1 binding. […] To determine whether prosaposin-mediated stimulation of Tsp-1 utilized this pathway, fibroblasts were treated with CM from PC3 cells in the presence and absence of the PKC inhibitor Gö 6983. […] Thus, it is believed that Prosaposin functions via binding to LRP1.
(In general: In western blotting, separated proteins are transferred to a membrane and probed.)

A further test deals with p53. The test is described as follows: Western blot of p53 in prostate fibroblasts treated with PC3-conditioned media. The test is classed as cell-based.
From the text: as §1, §2

For test [2], the system named is Tsp-1. Put plainly: Western blot of Tsp-1 in lung fibroblasts treated with psap peptide. The test is classed as cell-based. As to conditions: peptide with 25 or 50 μg rhRAP or with Y27632. Here is the method:
FIGS. 8A-8B. Western blot analysis of Tsp-1 and β-actin expression in lung fibroblasts, which were (FIG. 8A) untreated (−) or treated with psap peptide alone or in combination with 25 or 50 μg of rhRAP, and (FIG. 8B) untreated (−) or treated with psap peptide alone or with Y27632.
In order to delineate the pathway leading from LRP1 to Tsp-1 stimulation by prosaposin, two pathways that have been reported to be stimulated by LRP1 under different conditions were chosen to be examined: Rho and Rac.

A further test deals with T1, prosaposin (PSAP) (Homo sapiens, UniProt P07602).
T1 sequence (P07602 60-524): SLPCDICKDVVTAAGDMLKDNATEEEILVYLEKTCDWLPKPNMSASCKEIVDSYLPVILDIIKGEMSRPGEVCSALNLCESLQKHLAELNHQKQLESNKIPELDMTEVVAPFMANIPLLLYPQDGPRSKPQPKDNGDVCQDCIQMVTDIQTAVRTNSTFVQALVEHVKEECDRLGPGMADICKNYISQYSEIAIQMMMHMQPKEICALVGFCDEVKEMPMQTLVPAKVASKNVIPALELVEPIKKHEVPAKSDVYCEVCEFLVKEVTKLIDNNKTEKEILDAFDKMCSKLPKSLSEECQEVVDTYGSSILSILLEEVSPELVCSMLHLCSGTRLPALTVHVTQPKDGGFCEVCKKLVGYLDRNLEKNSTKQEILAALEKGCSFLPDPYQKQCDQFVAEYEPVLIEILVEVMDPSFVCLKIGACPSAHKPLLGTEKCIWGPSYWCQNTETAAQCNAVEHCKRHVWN
Put plainly: Co-immunoprecipitation of LRP1 peptides with PSAP. The format is binding. As for the experimental part:
(§3) FIGS. 16A-16B. Co-immunoprecipitation of LRP1 peptides with PSAP (FIG. 16A) or PRSS2 (FIG. 16B).
(§4) To map the binding sites on LRP1 that binds to prosaposin (PSAP) and/or PRSS2, peptides derived from binding domain I of LRP1 (SEQ ID NOs: 3 and 7-18) were tested for their ability to co-immunoprecipitate with PSAP or PRSS2.

Another test concerns the target PRSS2 (Homo sapiens, UniProt P07478). Put plainly: Co-immunoprecipitation of LRP1 peptides with PRSS2. The format is binding. As for the experimental part: as §3, §4
The subject of test [3] is Tsp-1. Put plainly: Western blot of Tsp-1 in lung fibroblasts treated with LN4 conditioned media. The format is cell-based. The note with it: WI38 cells, LN4 CM with Rac1 inhibitor. The source says: FIG. 11. Western blot analysis of Tsp-1 and β-actin expression in lung fibroblasts that were untreated (−) or treated with LN4 CM alone or in combination with STI.
FIG. 12. Western blot analysis of Tsp-1 and β-actin expression in lung fibroblasts that is were untreated (−) or treated with LN4 CM alone or in combination with Rac1 inhibitor.
Attention was then turned to the mechanism by which PC3M-LN4 cells repress Tsp-1 in the tumor microenvironment. In doing so, LN4 conditioned media (CM) was fractionated over a Cu^2+/heparin sepharose column with increasing concentrations of NaCl. The eluted fractions were used to treat lung fibroblasts and Tsp-1 induction was analyzed by western blot. […] By analyzing the protein content of the eluted fractions by tandem liquid chromatography/mass spectrometry (LC/MS), a protein was identified that was present in the active fractions of LN4 CM, but not present in the adjacent fractions or the fractions eluted with the same NaCl concentrations from PC3 CM. The identified protein was the serine protease PRSS2. […] Finally, the signaling pathway emanating from LRP1 that was mediating the PRSS2-induced repression of Tsp-1 was sought to be delineated. […]

Read-outs that look alike come from different tables or passages of the source.

Chain of PRSS2 (P07478 16-247 limits assumed): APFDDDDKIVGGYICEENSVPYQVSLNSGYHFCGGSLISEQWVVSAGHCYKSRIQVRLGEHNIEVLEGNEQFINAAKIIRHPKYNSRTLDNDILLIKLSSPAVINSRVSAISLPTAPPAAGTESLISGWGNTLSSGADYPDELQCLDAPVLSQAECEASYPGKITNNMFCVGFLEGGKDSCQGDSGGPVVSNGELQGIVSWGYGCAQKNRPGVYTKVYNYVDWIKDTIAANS

Take `COc1ccc2c(c1)c(C1=C(c3c[nH]c4ccccc34)C(=O)NC1=O)cn2CCCN(C)C` [Gö 6983, reference compound]: the “stimulation of Tsp-1 by PC3-conditioned media in the presence of the substance” value in the test with Tsp-1 [1] was “abolished the stimulation of Tsp-1 and p53”. Besides, in the test on p53, the “stimulation of p53 by PC3-conditioned media in the presence of the substance” value was “abolished the stimulation of Tsp-1 and p53”.
For the molecule `C[C@@H](N)[C@H]1CC[C@H](C(=O)Nc2ccncc2)CC1` [Peptide Y27632, Y27632, reference compound], the “effect of co-treatment on stimulation of Tsp-1 by the peptide” value with Tsp-1 [2] is “completely abrogated”.
For “Peptide 13: amino acids 151-172 of LRP1, SEQ ID NO: 3, FICGCVEGYLLQPDNRSCKAKN”, the “binding to PSAP (co-immunoprecipitation)” value in the test with prosaposin (PSAP) (listed as peptide 13) was “bind to both PRSS2 and PSAP”. Also, the “binding to PRSS2 (co-immunoprecipitation)” value with PRSS2 (listed as peptide 13) is “bind to both PRSS2 and PSAP”.
For the molecule “Peptide 12: amino acids 140-164 of LRP1, SEQ ID NO: 18, YGTCSQLCTNTDGSFICGCVEGYLL”, in the test with prosaposin (PSAP) (listed as peptide 12), the “binding to PSAP (co-immunoprecipitation)” value was “bind to both PRSS2 and PSAP”. For the same molecule, the “binding to PRSS2 (co-immunoprecipitation)” value is “Peptide 12 (amino acids 140-164 of LRP1, binds to” in the test with PRSS2; “bind to both PRSS2 and PSAP” in the test with PRSS2 (listed as peptide 12).
As for `CCN(CC)CCCC(C)Nc1nc(C)cc(Nc2ccc3nc(C)cc(N)c3c2)n1` (racemic) [Rac1 inhibitor], the “Tsp-1 levels under LN4 CM in presence of the substance” value with Tsp-1 [3] is listed as “restored to basal levels”.

B1: RAP: Receptor Associate Protein (RAP), a competitive inhibitor or LRP1 binding (protein, UniProt P30533 35-357, looked up)
Alpha-2-macroglobulin …: YSREKNQPKPSPKRESGEEFRMEKLNQLWEKAQRLHLPPVRLAELHADLKIQERDELAWKKLKLDGLDEDGEKEARLIRNLNVILAKYGLDGKKDARQVTSNSLSGTQEDGLDDPRLEKLWHKAKTSGKFSGEELDKLWREFLHHKEKVHEYNVLLETLSRTEEIHENVISPSDLSDIKGSVLHSRHTELKEKLRSINQGLDRLRRVSHQGYSTEAEFEEPRVIDLWDLAQSANLTDKELEAFREELKHFEAKIEKHNHYQKQLEIAHEKLRHAESVGDGERVSRSREKHALLEGRTKELGYTVKKHLQDLSGRISRARHNEL
On to B1, for which the “stimulation of Tsp-1 by PC3-conditioned media in the presence of the substance” value in the test with Tsp-1 [1] is recorded as “no longer stimulated Tsp-1”. Also, the “effect of co-treatment on stimulation of Tsp-1 by the peptide” value with Tsp-1 [2] was “blocked the stimulation of Tsp-1 in a dose-dependent fashion”.

The values are drawn from patent US11466080B2, “Methods of treating cancer using anti-LRP1 polyclonal antibodies” (Children's Medical Center Corporation, priority 2017, dated 2022).
